A word on the EC50 (read off the curve): it is the concentration that produces a half-maximal response. Low values mean a more potent agent, high ones a less potent agent. One may read the Kd as the free concentration of one partner at which half of the binding sites on the other are occupied at equilibrium, for simple one-to-one binding. Read a low Kd as tighter binding. In general, EC50 refers to the concentration that produces a half-maximal response.

These results are taken from patent publication US20230014398A1 (University of Texas, published 2023).

The target of one assay is TLR5 on HCT116 cells (UniProt O60602). Nature of the assay: cell-based or functional assay.
The target of assay [1] is T1, Human 4Ig-B7-H3 extracellular domain (human, UniProt Q5ZPR3 29-466).
T1 construct: extracellular domain
T1 sequence (looked up): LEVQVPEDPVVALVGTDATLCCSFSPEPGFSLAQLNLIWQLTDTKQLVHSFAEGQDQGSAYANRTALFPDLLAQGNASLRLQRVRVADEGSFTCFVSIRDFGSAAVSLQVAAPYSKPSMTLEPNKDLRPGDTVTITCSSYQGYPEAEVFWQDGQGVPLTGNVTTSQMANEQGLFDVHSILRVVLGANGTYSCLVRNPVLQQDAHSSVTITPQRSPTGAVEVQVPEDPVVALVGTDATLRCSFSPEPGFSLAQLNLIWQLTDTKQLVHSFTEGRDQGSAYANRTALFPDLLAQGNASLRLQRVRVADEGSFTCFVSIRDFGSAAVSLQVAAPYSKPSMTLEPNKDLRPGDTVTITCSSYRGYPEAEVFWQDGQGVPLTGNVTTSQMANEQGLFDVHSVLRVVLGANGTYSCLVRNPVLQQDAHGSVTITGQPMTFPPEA
Nature of the assay: ELISA, extracellular domain plated on 96-well plates, MIL33B titrated, absorbance read.
Description: The extracellular domains of human 4Ig-B7-H3 and murine 2Ig-B7-H3 were purchased and plated down onto 96-well plates. […] Plates were then washed and assessed for antibody binding through absorbance measurements.

The target in assay [2] is T2, Mouse 2Ig-B7-H3 extracellular domain (mouse, UniProt Q8VE98 29-248).
T2 construct: extracellular domain; Purchased recombinant extracellular domain; also called murine 2Ig-B7-H3
T2 sequence (looked up): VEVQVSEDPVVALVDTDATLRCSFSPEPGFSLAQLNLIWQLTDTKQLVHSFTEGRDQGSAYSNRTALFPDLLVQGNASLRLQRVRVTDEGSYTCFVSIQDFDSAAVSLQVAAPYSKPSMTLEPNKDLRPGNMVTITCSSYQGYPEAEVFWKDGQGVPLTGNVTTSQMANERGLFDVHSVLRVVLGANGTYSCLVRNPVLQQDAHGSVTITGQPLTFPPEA
As to the kind of experiment: ratio of Kd values, told as the reason for using 100 ug/mL MIL33B-A594 on Pan02 cells.

Assay [3] concerns the target T1, Human 4Ig-B7-H3 extracellular domain. Nature of the assay: biolayer interferometry (Octet), MIL33B captured on the probe, extracellular domain in solution.
Protocol: (§1) Dissociation constants, Kd, were determined utilizing biolayer interferometry (Octet) assays. […] The surface is then placed into a solution of analyte and the phase shift indicating binding was measured over time. The probe was then moved into a solution without analyte and the time course of off-binding was measured. This cycle was repeated for multiple analyte concentrations, and the Kd was calculated from global curve fitting of the concentration- and time-dependence of the analyte binding to the antibody.
(§2) The extracellular domains of the indicated B7 family proteins were purchased from R&D Systems. All proteins were validated by the vendor to be both pure and functional.
Assay [4] has as its target T3, Human 2Ig-B7-H3 extracellular domain (human, UniProt Q5ZPR3 29-466).
T3 chain: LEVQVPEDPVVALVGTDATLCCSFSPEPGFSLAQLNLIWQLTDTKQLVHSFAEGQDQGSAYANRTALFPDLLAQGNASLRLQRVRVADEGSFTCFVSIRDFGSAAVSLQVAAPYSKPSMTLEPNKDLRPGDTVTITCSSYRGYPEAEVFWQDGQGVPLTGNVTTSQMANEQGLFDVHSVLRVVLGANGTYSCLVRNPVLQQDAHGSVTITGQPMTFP
The assay is described as above.
Protocol: as §1, §2

Assay [5] has as its target T2, Mouse 2Ig-B7-H3 extracellular domain. The description is as above.
Protocol: as §1, §2
In assay [6] the target is T1, Human 4Ig-B7-H3 extracellular domain. As to the kind of experiment: biolayer interferometry (Octet), comparison of Kd values of Table 6.
Description: as §2
In assay [7] the target is T4, Human 4Ig-B7-H3 expressed on cells (human, UniProt Q5ZPR3 29-534).
T4 construct: whole, on cells; also called native 4Ig-B7-H3 on HeLa and HCT116 cells; human 4Ig-B7-H3 on transduced 4T1, B16F10 and L cells
T4 sequence (looked up): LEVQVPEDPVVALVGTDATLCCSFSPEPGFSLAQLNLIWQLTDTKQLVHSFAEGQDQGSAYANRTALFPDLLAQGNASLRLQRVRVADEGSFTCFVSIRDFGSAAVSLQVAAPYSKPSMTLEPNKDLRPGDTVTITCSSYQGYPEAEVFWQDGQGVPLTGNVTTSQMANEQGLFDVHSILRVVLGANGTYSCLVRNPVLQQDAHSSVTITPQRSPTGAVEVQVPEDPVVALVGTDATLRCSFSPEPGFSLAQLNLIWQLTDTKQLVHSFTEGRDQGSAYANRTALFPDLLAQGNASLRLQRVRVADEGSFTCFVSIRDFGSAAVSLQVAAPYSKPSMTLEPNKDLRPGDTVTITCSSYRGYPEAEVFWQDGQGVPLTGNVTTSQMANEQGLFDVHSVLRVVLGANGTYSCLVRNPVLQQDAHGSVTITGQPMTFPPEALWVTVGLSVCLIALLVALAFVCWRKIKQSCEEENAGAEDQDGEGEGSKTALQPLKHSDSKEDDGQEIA
As to the kind of experiment: live cell immunofluorescence microscopy on 4T1 cells transduced with human 4Ig-B7-H3, labeled antibody at 1 µg/mL.
Description: Murine breast tumor, 4T1 cells (ATCC), were stably transduced with human 4Ig-B7-H3 or empty vector using lentiviral constructs.
(§3) Cells were washed and imaged by fluorescence microscopy (TiE, Nikon).

For assay [8], the target named is T5, Murine 2Ig-B7-H3 expressed on cells (mouse, UniProt Q8VE98 29-316).
T5 construct: whole, on cells; also called murine B7-H3 expressed on tumor cells; 2Ig-B7-H3 on Pan02 and 4T1 cells
T5 sequence (looked up): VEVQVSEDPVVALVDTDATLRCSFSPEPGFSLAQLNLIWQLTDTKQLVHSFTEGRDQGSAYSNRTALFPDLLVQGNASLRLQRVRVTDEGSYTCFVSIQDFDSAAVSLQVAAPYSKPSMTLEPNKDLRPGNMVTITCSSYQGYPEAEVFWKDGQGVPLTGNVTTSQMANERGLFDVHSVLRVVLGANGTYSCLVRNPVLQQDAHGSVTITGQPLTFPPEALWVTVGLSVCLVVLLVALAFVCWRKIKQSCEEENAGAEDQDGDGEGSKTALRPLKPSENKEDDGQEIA
As to the kind of experiment: live cell immunofluorescence microscopy on Pan02 cells, MIL33B-A594 at 100 µg/mL; one panel blocked with unlabeled MIL33B.
Description: as §3

Assay [9] deals with T4, Human 4Ig-B7-H3 expressed on cells. Nature of the assay: in vivo PET of 89Zr-DFO-labeled antibody in mice bearing 4T1 or B16F10 tumors with human 4Ig-B7-H3 or vector control, %ID/cc of tumor VOIs at 24 and 72 hr.
Description: (§4) Immune competent mice bearing subcutaneous 4T1 tumors expressing human 4Ig-B7-H3 or negative vector (see Western blots in FIG. 3) were utilized. […] Similarly, B16F10 cells were transduced with human 4Ig-B7-H3 or empty vector. These cells have less endogenous murine 2Ig-B7H3 than 4T1 tumors.
Assay [10] concerns the target T5, Murine 2Ig-B7-H3 expressed on cells. As to the kind of experiment: PET imaging in mice with 4T1 or B16F10 tumors carrying the negative (empty) vector, with endogenous murine 2Ig-B7-H3 only, 24 and 72 hr after injection.
Description: as §4
In assay [11] the target is T1, Human 4Ig-B7-H3 extracellular domain. Nature of the assay: ELISA. Background: An ELISA detects its analyte on a solid surface through an enzyme-linked reagent.

A value given as a limit tells only on which side of the number the result lay.

Chain of TLR5 on HCT116 cells (O60602 21-858 limits assumed): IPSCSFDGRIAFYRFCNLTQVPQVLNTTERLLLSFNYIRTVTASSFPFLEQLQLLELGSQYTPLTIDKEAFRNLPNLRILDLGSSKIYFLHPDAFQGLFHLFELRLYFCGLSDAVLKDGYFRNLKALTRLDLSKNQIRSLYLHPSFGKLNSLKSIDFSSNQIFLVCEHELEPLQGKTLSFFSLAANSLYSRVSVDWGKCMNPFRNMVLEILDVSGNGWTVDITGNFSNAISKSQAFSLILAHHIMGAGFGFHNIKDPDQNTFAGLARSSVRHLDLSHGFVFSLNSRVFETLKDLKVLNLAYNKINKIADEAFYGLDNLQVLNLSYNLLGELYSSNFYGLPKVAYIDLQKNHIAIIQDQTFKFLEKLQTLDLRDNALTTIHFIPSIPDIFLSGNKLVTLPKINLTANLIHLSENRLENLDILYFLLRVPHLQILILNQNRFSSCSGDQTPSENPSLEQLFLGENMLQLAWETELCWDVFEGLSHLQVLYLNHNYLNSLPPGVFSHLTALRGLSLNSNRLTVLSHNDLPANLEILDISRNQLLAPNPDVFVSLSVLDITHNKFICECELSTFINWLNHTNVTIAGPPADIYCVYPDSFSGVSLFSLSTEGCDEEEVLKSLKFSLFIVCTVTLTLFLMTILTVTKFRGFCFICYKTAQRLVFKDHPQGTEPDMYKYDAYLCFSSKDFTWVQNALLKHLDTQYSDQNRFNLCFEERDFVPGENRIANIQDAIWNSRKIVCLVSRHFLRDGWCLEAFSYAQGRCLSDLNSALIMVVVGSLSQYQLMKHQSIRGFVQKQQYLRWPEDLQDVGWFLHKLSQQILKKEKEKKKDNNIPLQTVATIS

On to Purified flagellin (ligand), for which the activation of NF-kB (kB-RE5-IkBa-Fluc reporter in HCT116 cells) in the assay with TLR5 on HCT116 cells is 1.8 nM.

B1: MIL33B monoclonal antibody (antibody, IgG2a, V domains shown)
VH: EVQLQQSGPELVKPGASVKMSCKASGYTFTSYVMHWVRQSPGQGLEGIGYINSYSDGTKYNEKFKGKATLTSDKSSSTAYMELSGLTSEDSAVYYCARWGGLGNGAMDYWGQGTSVTVSS
VL: QIVLTQSPAIMSASPGEKVTMTCSVSSSVNYMHWYQQKSGTSPKRWIYDTSKLASGVPARFSASGSGTSYSLTISSMEAEDAATYYCQQWTSNPLTFGAGTKLELK
notes: Mouse hybridoma antibody from an NZBWF1/J mouse; constant regions are not; also called MIL33B mAb; MIL33B antibody
Regarding B1, in [1], the “EC50 (read off the curve)” value was roughly 0.1 nM. Further, in assay [2], the “fold shift in Kd from human 4Ig-B7-H3 to murine 2Ig-B7-H3” value was roughly 100 fold. Besides, the Kd turned out to be 0.0723 nM in assay [3], 0.58 nM in assay [4] and 41.1 nM in assay [5]. Also, in [6], the “fold better binding than to other B7 family members” value was no less than 1000 fold.

B2: MIL33B labeled with Alexa594 fluorophore (antibody, V domains shown)
VH: EVQLQQSGPELVKPGASVKMSCKASGYTFTSYVMHWVRQSPGQGLEGIGYINSYSDGTKYNEKFKGKATLTSDKSSSTAYMELSGLTSEDSAVYYCARWGGLGNGAMDYWGQGTSVTVSS
VL: QIVLTQSPAIMSASPGEKVTMTCSVSSSVNYMHWYQQKSGTSPKRWIYDTSKLASGVPARFSASGSGTSYSLTISSMEAEDAATYYCQQWTSNPLTFGAGTKLELK
modifications: Alexa594 fluorophore on the antibody, residues not stated
notes: also called MIL33B-A594; Alexa594-labeled MIL33B
As for B2, the binding result in assay [7] and in [8] was “binds” in each case.

B3: MIL33B conjugated with DFO and radiolabeled with 89Zr (antibody, mouse IgG2a, V domains shown)
VH: EVQLQQSGPELVKPGASVKMSCKASGYTFTSYVMHWVRQSPGQGLEGIGYINSYSDGTKYNEKFKGKATLTSDKSSSTAYMELSGLTSEDSAVYYCARWGGLGNGAMDYWGQGTSVTVSS
VL: QIVLTQSPAIMSASPGEKVTMTCSVSSSVNYMHWYQQKSGTSPKRWIYDTSKLASGVPARFSASGSGTSYSLTISSMEAEDAATYYCQQWTSNPLTFGAGTKLELK
modifications: DFO chelator with 89Zr on the antibody, residues not stated
notes: also called MIL33B-DFO; radiolabeled MIL33B antibody
B3: the binding result in [9] and in assay [10] was “binds” each time.

B4: Flagellin-conjugated MIL33B (other)
VH: EVQLQQSGPELVKPGASVKMSCKASGYTFTSYVMHWVRQSPGQGLEGIGYINSYSDGTKYNEKFKGKATLTSDKSSSTAYMELSGLTSEDSAVYYCARWGGLGNGAMDYWGQGTSVTVSS
VL: QIVLTQSPAIMSASPGEKVTMTCSVSSSVNYMHWYQQKSGTSPKRWIYDTSKLASGVPARFSASGSGTSYSLTISSMEAEDAATYYCQQWTSNPLTFGAGTKLELK
modifications: MIL33B (mouse IgG2a) is chemically conjugated to purified flagellin through a commercial linker kit. Attachment sites and the number of flagellins per antibody are not stated, and the letters cannot carry them.
notes: Chemical conjugate of MIL33B (mouse IgG2a) and flagellin; also called MIL33B-flgn conjugate; MIL33B-flagellin conjugate; not shown: Flagellin (purified, InvivoGen)
In assay [11], B4 had an EC50 of 36 nM.
